Assay [1] addresses full length STAT6 (human) (UniProt P42226). As to the kind of experiment: cell-based or functional assay.
In assay [2] the target is GST-STAT6 aa 677-847 protein (human). As to the kind of experiment: ELISA: 500 ng GST-STAT6 (677-847) coated, 250 ng His-NCoA-1 added, detected by Penta-His and anti-mouse-HRP; average of three experiments, s.d. 0,036. For orientation: An ELISA detects its analyte on a solid surface through an enzyme-linked reagent.
GST-STAT6 aa 677-847 protein (human), sequence (chain, as listed by the source limits assumed): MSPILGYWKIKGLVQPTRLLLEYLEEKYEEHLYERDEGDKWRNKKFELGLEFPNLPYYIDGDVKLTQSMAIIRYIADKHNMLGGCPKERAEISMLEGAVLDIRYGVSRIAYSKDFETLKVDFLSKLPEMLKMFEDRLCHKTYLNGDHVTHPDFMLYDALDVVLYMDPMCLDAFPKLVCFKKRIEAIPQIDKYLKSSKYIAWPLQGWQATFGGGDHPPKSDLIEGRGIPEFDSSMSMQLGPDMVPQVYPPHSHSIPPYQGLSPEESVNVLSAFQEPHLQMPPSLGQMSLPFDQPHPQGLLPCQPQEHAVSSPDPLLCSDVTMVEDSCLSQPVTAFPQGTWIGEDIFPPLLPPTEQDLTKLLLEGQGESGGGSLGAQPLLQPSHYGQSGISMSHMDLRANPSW

UniProt P42226, sequence (P42226 2-847): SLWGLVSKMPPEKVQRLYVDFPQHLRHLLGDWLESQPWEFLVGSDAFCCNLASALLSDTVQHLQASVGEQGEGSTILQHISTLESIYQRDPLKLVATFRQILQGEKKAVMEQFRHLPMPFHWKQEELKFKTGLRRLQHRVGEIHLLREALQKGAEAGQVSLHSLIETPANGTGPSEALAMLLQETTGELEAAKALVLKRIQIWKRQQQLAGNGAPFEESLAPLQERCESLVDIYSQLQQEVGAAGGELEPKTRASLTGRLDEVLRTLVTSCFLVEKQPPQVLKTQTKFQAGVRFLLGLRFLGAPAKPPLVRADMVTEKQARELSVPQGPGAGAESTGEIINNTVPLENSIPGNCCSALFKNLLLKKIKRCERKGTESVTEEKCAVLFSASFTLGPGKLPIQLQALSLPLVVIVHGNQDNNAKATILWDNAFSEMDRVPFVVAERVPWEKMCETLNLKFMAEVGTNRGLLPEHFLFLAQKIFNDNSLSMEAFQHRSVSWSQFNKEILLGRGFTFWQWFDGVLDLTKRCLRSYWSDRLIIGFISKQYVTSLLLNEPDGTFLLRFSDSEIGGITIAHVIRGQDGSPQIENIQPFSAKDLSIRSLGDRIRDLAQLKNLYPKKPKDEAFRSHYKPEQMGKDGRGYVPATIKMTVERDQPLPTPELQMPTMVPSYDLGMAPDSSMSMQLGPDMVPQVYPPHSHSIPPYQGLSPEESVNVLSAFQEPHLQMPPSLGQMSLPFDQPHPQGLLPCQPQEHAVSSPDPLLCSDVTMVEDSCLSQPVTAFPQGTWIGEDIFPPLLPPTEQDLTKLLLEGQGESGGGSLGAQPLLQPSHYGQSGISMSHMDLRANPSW

“NCoA-1 (nuclear coactivator 1), full length (from UniProt P70365 2-1447)”: the IL-4 induced luciferase reporter gene expression (multimerized STAT6 response elements) in HepG2 cells in assay [1] was < 3 fold.

B1: His-tagged NCoA-1 aa 212-463 (protein)
chain: MHHHHHHSSGLVPRGSGMKETAAAKFERQHMDSPDLGTDDDDKAMGYLWIQEACQRYEVMQCFTVSQPKSIQEDGEDFQSCLICIARRLPRPPAITGVESFMTKQDTTGKIISIDTSSLRAAGRTGWEDLVRKCIYAFFQPQGREPSYARQLFQEVMTRGTASSPSYRFILNDGTMLSAHTKCKLCYPQSPDMQPFIMGIHIIDREHSGLSPQDDSNSGMSIPRINPSVNPGISPAHGVTRSSTLPPSNNNMVSARVNRQQSSDLNSSSSHTNSSNNQGNFGCSPGNQIVANVALNQGQAGSLEHHHHHH
As to B1, the Extinction 493 nm in assay [2] stood at 0.795.

These data come from patent EP1410040B1.
